Results on six sequences are retold here after the DeepSol protein solubility set.

This data set is described as follows: soluble on expression in E. coli; label from the status in PepcDB or PDB records.
For “MSLQLEYPLTNHMKRNMVLTKENQVIAYYRIRSETVGLTDFEKKRKTKKKVARTLKRLQENEGFEIVLLPVNADIRGKMGGMRQLVDKENHSVAVDKLMKTAQYLENEIGMVYEYIWLIGVPLVKKERSIDIKETFSTALNNLSEKVVKGLGLEVGVAEDWEEAYKDQEQEVYQNLSELLVERLTEDELYYYQAYQFLNNIQHEKKELLTSQNLDNLLANKITPFRGGLELSNEFGKSYIAHLPLGDCGVTIDGNHLLELVQKMSYPVSVKLQAGFAETKGQLALSGRSARARTRTKNIMEEAHLAGSKQKRKIVEGQHSLDDLDQKIDDDIPIIDWKAVLVISGNSKKQLRERKKNLMNRLDSLGIPLIRATFDNVYLFQATLLGNFQRFSTSNWQHTSTLETFSELNFFTSLHAGTKTGFYLGRVDATLEEKESRKQIVSGSKNIVYMNLLLANKQNIEGKKTNNPHWLVSGDTGNGKSVFSKWLFLYSSLLDVKVLYIDPKKEVRQQFMRTINDPEYQRKYPLDVAFIKTFNFVTLDVRKKENHGVLDPIVLFDETEAIATAKAMLNNINEDKWKMPHKTAINETVAEVVAERKAGKQVGFWHVIERLISHSEKDVHEMGRFLLSTIKGSILELAFSHGEVEGLSFEKKVTILEIEDLDLPTDRHDELDENQRLSVTLMFALGTFCSKFGSRNRKEETVTFFDEAWIFQSSPEGQKILKSMKRIGRSFNNFMVLITQSVNDVLDNGDGTGFGTVVCFDEVDNREGILRYLKLPVNEINLKWVSNMIQGQCLMKDMFNQVNRIVIDVIFEEWLELFETVDEGHHHHHH”, the “soluble on expression in E. coli” value was “soluble”.

As to “MSLKGYPFLDKANAPFVDRHVTKAGEIFYPWDGKRIDGFGLIGAPLSKSSISHSGASFAPTVIRKCLHAFSTYSVEEDLDLAQLKLTDLGDITMHVTDIVGSQARIEETMTKLLENEQNWQPIVLGGDHSISFPSIKAFASAKGTIGVIQFDAHHDLRNLEDGGPCNGTPFRSLLETGSLVGEHLVQIGIRDFSNSYPYRKYAEKHGVKVYTMKDVNARGLLTILDEAVAKLKRSVDVIYVSVDMDVLDQAHAPGCPAIGPGGMDSTTLLQGIFHLGKDSLVQGMDIVEVDPTLDFREMTSRAAAHVILNYLKGKCIKSEGHHHHHH”, the “soluble on expression in E. coli” value is recorded as “soluble”. The result for “MKDQNGVASTDDSVLPSWSNPDVGQFIVSTYNEYEYKRIPFRELEFGCLLCRMRTFNHEGMKKHLRDHVVHKKSSCEHEKPGKTGIHHQVDKAGNGVMPENGQLVQCYIEIKLADCYTSWSNYESQNPIIFKIGFGEVIPGLDIGIPKMKVGEIATFHVSGKYGYGRAGFRGLIPRNASLTCKVRLFNCSWDSYAKIGVDRQILVQGDNVTKSKNGQTVTCHYVLILVDGTKIDSSRDRETPFKFKIGKGEVIKGWDQGVAQMSVKEKSKLTIAPAFGFEKGKLPAGIPA” reads “not soluble”. With “MSLNALDPHDALPWIEETTALELSPSQRSAVTLVLASKVSIITGGPGVGKTTILKAILSVLQREKVSVALCAPTGRAAKRLTESTGIEAKTIHRLLEFDPQAFDFKRGRGNPLDASFVVVDETSMVDVVLMQKLVAAIPDHAAVVFVGDVDQLPSVGPGAVLADMISSEAIPTVRLTEIFRQAAESMIVVNAHRINQGDMPLTAEGEELSDFYVVKAASAEEIHDKVIQLVTERIPKRFGLDAVKDVQVLTPMNKGGVGVHALNAELQAKLNPASEPKVTRFGTTFAPGDKVIQTVNNYDKEVFNGDIGLIEAIDPEAEIATAFFFDHHRAEYDFNDLDELSLAYATSIHKSQGSEYPAVVIPLAMQHFTLLERNLIYTAVTRGRKLVVIVAEPKALTLAIKNCKSKRRLTGLVQRLRESGKQSWQNEGHHHHHH” the entry was “soluble”; with “MSLTQHTLWLLRFTYKQLKEKLTVSDSKKLFHEQFPYVIPGLYKRIVDEMLVELNLLNHQNEFIQDDLFCVGLTETFKELTKGYKPEEHLRVLFESLCNSSNFEPKKIKEASKKTLEVYKDKSLKEISILLKQKSDSNLYSSRIMNLGIYLIIANATDFKDIKDPEKNKIISDIINKLNLSFNKAEKDIGIYKSSILKMEQAKELLQEAKIKDKKEKEGHHHHHH”, “not soluble”; with “MLEQMGIAAKQASYKLAQLSSREKNRVLEKIADELEAQSEIILNANAQDVADARANGLSEAMLDRLALTPARLKGIADDVRQVCNLADPVGQVIDGGVLDSGLRLERRRVPLGVIGVIYEARPNVTVDVASLCLKTGNAVILRGGKETCRTNAATVAVIQDALKSCGLPAGAVQAIDNPDRALVSEMLRMDKYIDMLIPRGGAGLHKLCREQSTIPVITGGIGVCHIYVDESVEIAEALKVIVNAKTQRPSTCNTVETLLVNKNIADSFLPALSKQMAESGVTLHADAAALAQLQAGPAKVVAVKAEEYDDEFLSLDLNVKIVSDLDDAIAHIREHGTQHSDAILTRDMRNAQRFVNEVDSSAVYVNASTRFTDGGQFGLGAEVAVSTQKLHARGPMGLEALTTYKWIGIGDYTIRA”, “soluble”.
